Where a SMILES comes first, the peptide text is derived from it. The star is where a group is joined. FITC = O=C1OC2(c3ccc(O)cc3Oc3cc(O)ccc32)c2ccc(NC(=S)*)cc21; Oxazole(5-CO) = O=C(c1cnco1)*; Ahx = NCCCCCC(=O)O
Columns and labels:
[1] = target: T1, ENL YEATS (His-ENL) (Homo sapiens, UniProt Q03111); assay: Fluorescence polarization binding of tracer to ENL YEATS
T1 construct: (aa 1−148) was cloned in pET19b; made in house; host or cells: E. coli BL21(DE3pLysS)
T1 sequence (Q03111 1-148): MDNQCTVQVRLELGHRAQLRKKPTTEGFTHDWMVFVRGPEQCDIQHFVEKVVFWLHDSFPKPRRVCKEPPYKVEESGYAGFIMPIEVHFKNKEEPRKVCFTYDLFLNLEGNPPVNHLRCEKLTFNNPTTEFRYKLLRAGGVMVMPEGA
Experimental: Meanwhile, we established a stable cell line for NanoLuc-ENL YEATS expression. The binding of SR-0813T to […] was also validated using a fluorescence polarization assay (Figure S16).
Fluorescence Polarization:
Tracer 1 (10 nM) and varying concentrations of His-ENL (14 nM to 7.2 µM) were mixed in a 200 µL of assay buffer (50 mM HEPES, 100 mM NaCl, 0.01% Tween20, pH: 7.4). The solutions were incubated in black 96-well plates and then measured fluorescence polarization in a microplate reader at Ex/Em = 530 nm/590 nm.
NanoBRET Assay to Validate ENL Inhibitors:
HEK293T/17 cells harboring pCDH-EF1-Nluc-ENL were cultivated in growth medium overnight at 37 °C and 5% CO2. […] Following a quick spin (100 rcf, 1 min), a plate reader equipped with the LUM 610 LP 450 module was used to measure the emissions at 450 nm (donor) […]
The final BRET ratio was calculated by dividing the acceptor emission (610 nm) by the donor emission (450 nm). The BRET ratio was calculated using the following equation: […]
MOLM-13 cells were incubated with test compound (tENL-S1f at a final concentration of 10 and 50 μM) and control (DMSO at a final concentration of 0.1%) for 24 hours. […] Quantitative real-time PCR (qRT-PCR) analyses were performed in triplicate using SYBR Select Master Mix (Applied Biosystems) […]
Gene expressions were calculated following normalization to B2M levels using the comparative C t (cycle threshold) method. […]

[2] = tested on: MOLM-13 cells; type: cell-based
From the text: (§1) For peptides developed for intracellular targets, a common concern is their cellular permeability to engage the targets. For the ENL YEATS domain that is a nuclear protein, its inhibitors will also need to translocate to the nucleus to exert their inhibition activities. […] We attached FITC to tENL-S1o to afford FITC-tENL-S1o that could be fluorescently imaged. […] Although results from this pilot study were very encouraging, the conjugated FITC could have assisted the cellular penetration process. A more accurate assay was needed for the use of unmodified peptides. […] There are three components required to gauge the peptide inhibitory potency for ENL expressed in cells through NanoBRET assays: (1) an ENL YEATS-NanoLuc luciferase fusion protein, (2) a NanoLuc luciferase substrate, and (3) a fluorescent tracer that binds specifically and reversibly to the reader channel of ENL YEATS. […] The cellular potency of peptides can be determined through the decrease in BRET as test peptides engage the ENL YEATS domain and displace the tracer. […]
(§2) Fluorescence microscopy study with FITC-6AHX-tENL-S1o: […]
(§3) Cell proliferation assays were performed in 96-well tissue culture plates (Corning). […] Cell numbers were determined every 3–4 days using the Countess automated cell counter (Invitrogen). […]

[3] = tested on: MV4-11 cells; type: cell-based
From the text: as §1, §2, §3

Row | Compound | Kd [1] [nM] | cellular fluorescence (cell penetration) [2] | cellular fluorescence (cell penetration) [3]
1 | O=C(CCC1=[N+]2C(=Cc3ccc(-c4ccc[nH]4)n3[B-]2(F)F)C=C1)NCCCC(=O)Nc1cccc(-c2cn3cc(C(=O)NC4CCC4)ccc3n2)c1 [SR-0813T] | 1100 | – | –
2 | CC(C)[C@H](NC(=O)CCCCCNC(=S)Nc1ccc2c(c1)C(=O)OC21c2ccc(O)cc2Oc2cc(O)ccc21)C(=O)N[C@@H](Cc1ccc(O)cc1)C(=O)N[C@@H](CS)C(=O)N[C@@H](Cc1ccc(O)cc1)C(=O)N[C@@H](CCCCNC(=O)c1cnco1)C(N)=O [FITC-tENL-S1o] ({FITC-Ahx}-VYCYK(Oxazole(5-CO))-NH2) | – | strong fluorescence within the cells | strong fluorescence within the cells
